Reference: patent US9073974B2, “RGD-containing cyclic peptides” (The Regents of the University of California, priority 2009, dated 2015)
Numbered stars: 1 amine (or outer) side, 2 acyl side, 3 side chain; on linkers, the order of the positions; unused ones are H or OH. Bridge positions count the residues as written; N and C are the ends. Square brackets hold non-standard residues; d marks the D form. Primed or numbered codes have the meaning given here. Side chains are listed from the residue outwards. Ends that are not written are not given here. Ebes = 2,2'-ethylenedioxy bis(ethylamine) monosuccinamide; Suc = O=C(CCC(=O)[*:2])[*:1]; Ebes″ = not defined here

Assays:
αvβ3 integrin [1] = target: T1, αvβ3 integrin (human, UniProt P06756 31-1048; P05106 27-788); experiment: flow cytometry, saturation binding of LXW7-Bio on αvβ3-K562 cells, streptavidin-PE, nonspecific binding with 100 µM LXW7 subtracted
T1 construct: whole, on cells; Same entry used for αvβ3-K562, U-87 MG and A375M cells; also called αvβ3-K562; αvβ3 transfected K562 cells

αvβ3 integrin [2] = target: T1, αvβ3 integrin; experiment: flow cytometry, saturation binding of LXW7-Bio on U-87 MG cells
αvβ3 integrin [3] = target: T1, αvβ3 integrin; experiment: flow cytometry, saturation binding of LXW7-Bio on αvβ3-K562 cells
αvβ3 integrin [4] = target: T1, αvβ3 integrin; experiment: flow cytometry, saturation binding of LXW7-Bio on A375M cells, streptavidin-PE, nonspecific binding with 100 µM LXW7 subtracted
αvβ3 integrin [5] = target: T1, αvβ3 integrin; experiment: flow cytometry, saturation binding of LXW7-Bio on A375M cells
αvβ3 integrin [6] = target: T1, αvβ3 integrin; experiment: flow cytometry, competition with FITC-Echistatin on αvβ3-K562 cells
αvβ3 integrin [7] = target: T1, αvβ3 integrin; experiment: flow cytometry, saturation binding of LXW7-Bio on U-87 MG cells, streptavidin-PE, nonspecific binding with 100 µM LXW7 subtracted
αvβ3 integrin [8] = target: T1, αvβ3 integrin; experiment: flow cytometry, competition with FITC-Echistatin on αvβ3-K562 cells; +++ = IC50 <1 µM
αvβ3 integrin [9] = target: T1, αvβ3 integrin; experiment: flow cytometry, competition with biotinylated LXW7 on αvβ3-K562 cells (internal reference)
αvβ3 integrin [10] = target: T1, αvβ3 integrin; experiment: flow cytometry, competition with FITC-Echistatin on αvβ3-K562 cells; remark: listed apart in the source
αvβ3 integrin [11] = target: T1, αvβ3 integrin; experiment: as above; remark: listed apart in the source
[12] = target: T2, αvβ3 integrin (human), P06756; experiment: as above; details: remark: other sources report otherwise
T2 chain 1: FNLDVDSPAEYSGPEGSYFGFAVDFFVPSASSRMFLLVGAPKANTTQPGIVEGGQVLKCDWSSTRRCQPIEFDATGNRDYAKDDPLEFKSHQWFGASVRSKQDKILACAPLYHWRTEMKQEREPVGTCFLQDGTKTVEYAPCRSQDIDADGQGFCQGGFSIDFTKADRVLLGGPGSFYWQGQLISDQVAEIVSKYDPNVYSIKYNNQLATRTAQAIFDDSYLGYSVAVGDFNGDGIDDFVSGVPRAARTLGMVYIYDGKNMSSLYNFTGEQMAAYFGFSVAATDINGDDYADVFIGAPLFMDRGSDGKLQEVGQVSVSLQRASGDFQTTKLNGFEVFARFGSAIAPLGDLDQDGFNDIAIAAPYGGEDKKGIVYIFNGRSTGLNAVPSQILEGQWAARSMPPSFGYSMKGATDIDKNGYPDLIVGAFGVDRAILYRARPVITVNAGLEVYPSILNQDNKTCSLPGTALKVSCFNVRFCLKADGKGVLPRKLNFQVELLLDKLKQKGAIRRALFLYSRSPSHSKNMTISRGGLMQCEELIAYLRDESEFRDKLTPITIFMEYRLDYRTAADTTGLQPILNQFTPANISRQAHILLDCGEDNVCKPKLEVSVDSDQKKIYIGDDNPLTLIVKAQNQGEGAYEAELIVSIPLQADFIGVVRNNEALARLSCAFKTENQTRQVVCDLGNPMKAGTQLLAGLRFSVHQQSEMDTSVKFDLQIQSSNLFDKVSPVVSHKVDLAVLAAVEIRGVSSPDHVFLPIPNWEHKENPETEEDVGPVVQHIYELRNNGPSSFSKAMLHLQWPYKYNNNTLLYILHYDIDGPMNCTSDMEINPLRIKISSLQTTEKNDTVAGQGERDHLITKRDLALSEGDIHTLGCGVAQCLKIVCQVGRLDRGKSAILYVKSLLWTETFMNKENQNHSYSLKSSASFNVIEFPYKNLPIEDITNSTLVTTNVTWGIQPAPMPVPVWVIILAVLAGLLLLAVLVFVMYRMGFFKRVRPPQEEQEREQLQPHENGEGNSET
T2 chain 2: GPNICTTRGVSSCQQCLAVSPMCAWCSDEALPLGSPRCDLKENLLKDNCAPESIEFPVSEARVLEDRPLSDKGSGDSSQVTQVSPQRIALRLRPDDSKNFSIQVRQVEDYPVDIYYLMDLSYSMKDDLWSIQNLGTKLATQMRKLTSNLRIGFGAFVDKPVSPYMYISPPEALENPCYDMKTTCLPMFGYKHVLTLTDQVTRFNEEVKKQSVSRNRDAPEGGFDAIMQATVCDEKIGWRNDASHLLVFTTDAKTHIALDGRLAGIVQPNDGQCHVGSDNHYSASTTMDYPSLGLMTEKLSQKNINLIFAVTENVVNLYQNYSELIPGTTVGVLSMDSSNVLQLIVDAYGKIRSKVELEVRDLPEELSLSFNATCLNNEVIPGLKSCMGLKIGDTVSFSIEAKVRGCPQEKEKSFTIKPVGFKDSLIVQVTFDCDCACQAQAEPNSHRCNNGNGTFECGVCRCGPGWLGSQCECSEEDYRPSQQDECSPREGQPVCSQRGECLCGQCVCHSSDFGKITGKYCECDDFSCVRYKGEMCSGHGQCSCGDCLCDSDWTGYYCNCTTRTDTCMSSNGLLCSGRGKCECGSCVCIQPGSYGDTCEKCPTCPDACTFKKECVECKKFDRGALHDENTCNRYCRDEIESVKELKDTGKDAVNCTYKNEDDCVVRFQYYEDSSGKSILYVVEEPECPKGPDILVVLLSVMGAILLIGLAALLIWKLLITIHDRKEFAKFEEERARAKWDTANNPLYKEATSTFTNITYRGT

B1: Biotinylated cyclo(cGRGDdvc) (peptide)
peptide: [dC]GRGD[dD][dV][dC]-{Ebes-Ebes-K(biotin)-NH2}
modifications: disulfide 1-8
B1 gave a Kd (αvβ3 integrin [1]) of 76 nM, a Bmax (αvβ3 integrin [2]) of 86 A.U and a Bmax (αvβ3 integrin [3]) of 1390 A.U. It also gave a Kd (αvβ3 integrin [4]) of 89 nM, a Bmax (αvβ3 integrin [5]) of 71 A.U and an IC50 (αvβ3 integrin [6]) of 620 nM. The Kd (αvβ3 integrin [7]) was 72 nM.

B2: LXW7 (peptide)
peptide: [dC]GRGD[dD][dV][dC]-NH2
modifications: disulfide 1-8; N-terminus assumed
SMILES: CC(C)[C@H]1NC(=O)[C@@H](CC(=O)O)NC(=O)[C@H](CC(=O)O)NC(=O)CNC(=O)[C@H](CCCNC(=N)N)NC(=O)CNC(=O)[C@H](N)CSSC[C@H](C(N)=O)NC1=O
With B2 the IC50 (αvβ3 integrin [8]) was < 1000 nM, the IC50 (αvβ3 integrin [9]) was 590 nM and the IC50 (αvβ3 integrin [6]) was 680 nM.

B3: LXW3 (peptide)
peptide: [dC]GRGD[dS][dE][dC]-NH2
modifications: disulfide 1-8; N-terminus assumed
SMILES: N=C(N)NCCC[C@@H]1NC(=O)CNC(=O)[C@H](N)CSSC[C@H](C(N)=O)NC(=O)[C@@H](CCC(=O)O)NC(=O)[C@@H](CO)NC(=O)[C@H](CC(=O)O)NC(=O)CNC1=O
In the case of B3, the IC50 (αvβ3 integrin [8]) is reported as < 1000 nM.

B4: cyclo (RGDfE)-Bio (peptide)
peptide: cyclo(RGD[dF]E([Ebes-Ebes-Lys(biotin) amide]))
notes: also called Biotinylated Cyclo(RGDfE)
With B4 the “fold decrease in affinity on biotinylation (against the non-biotinylated form)” value (αvβ3 integrin [10]) was 2 to 8 fold and the IC50 (αvβ3 integrin [11]) was 4700 nM.

B5: cyclo(RGDfE) (peptide)
peptide: cyclo(RGD[dF]E)
SMILES: N=C(N)NCCC[C@@H]1NC(=O)[C@H](CCC(=O)O)NC(=O)[C@@H](Cc2ccccc2)NC(=O)[C@H](CC(=O)O)NC(=O)CNC1=O
For B5, the IC50 (αvβ3 integrin [11]) was 600 nM.

B6: cyclo (RGDfK)-Bio (peptide)
peptide: cyclo(RGD[dF]K([Suc-Ebes″-Lys(biotin)NH2]))
modifications: reading uncertain
Work on B6 yielded an IC50 [12] of 1370 nM.
